Measurements published in publication doi:10.1101/2023.10.11.561842.

Experiments:
[1] = target: ErNaR, NDQ rhodopsin (light-driven sodium pump) from Erythrobacter sp. HL-111 (Erythrobacter sp. HL-111); test: cryo-EM structure
[2] = target: ErNaR, NDQ rhodopsin (light-driven sodium pump) from Erythrobacter sp. HL-111 (Erythrobacter sp. HL-111); test: SEC
[3] = target: ErNaR, NDQ rhodopsin (light-driven sodium pump) from Erythrobacter sp. HL-111 (Erythrobacter sp. HL-111); test: SEC; remark: listed apart in the source
[4] = target: ErNaR, NDQ rhodopsin (light-driven sodium pump) from Erythrobacter sp. HL-111 (Erythrobacter sp. HL-111); test: cryo-EM structure; remark: listed apart in the source

Measured: stoichiometry N

ErNaR, NDQ rhodopsin (light-driven sodium pump) from Erythrobacter sp. HL-111 (natural protein)
5: all assays above
